Literature values as cited in patent US20240216555A1, “TARGETING AND TREATMENT OF CANCEROUS CELLS USING RADIOLABELED GRP78-BINDING AGENTS” (University of Kentucky Research Foundation, priority 2022, published 2024).
Where no end group is shown, it is not given here.

Key:
csGRP78 [1] = biological target: T1, csGRP78 (Homo sapiens, UniProt P11021); conditions: previously shown; cited from earlier work
csGRP78 [2] = biological target: T1, csGRP78; conditions: previously shown; cited from earlier work; remark: listed apart in the source

T1 sequence (P11021 19-654): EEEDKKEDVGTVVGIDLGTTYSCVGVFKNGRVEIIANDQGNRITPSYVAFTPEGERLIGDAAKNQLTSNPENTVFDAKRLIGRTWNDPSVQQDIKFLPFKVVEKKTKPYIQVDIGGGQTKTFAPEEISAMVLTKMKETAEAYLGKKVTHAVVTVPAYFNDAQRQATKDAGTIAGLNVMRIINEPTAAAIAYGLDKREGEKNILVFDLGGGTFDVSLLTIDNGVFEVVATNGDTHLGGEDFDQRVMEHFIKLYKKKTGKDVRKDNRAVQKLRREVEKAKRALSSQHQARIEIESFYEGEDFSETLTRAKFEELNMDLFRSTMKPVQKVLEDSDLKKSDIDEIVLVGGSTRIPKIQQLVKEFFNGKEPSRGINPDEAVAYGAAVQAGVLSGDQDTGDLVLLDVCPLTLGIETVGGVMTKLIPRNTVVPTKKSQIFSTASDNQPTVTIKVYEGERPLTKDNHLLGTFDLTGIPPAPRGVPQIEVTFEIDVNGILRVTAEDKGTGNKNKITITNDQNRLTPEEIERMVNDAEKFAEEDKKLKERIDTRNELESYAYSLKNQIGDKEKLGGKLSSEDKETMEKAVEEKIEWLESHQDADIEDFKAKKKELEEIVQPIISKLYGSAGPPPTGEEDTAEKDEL

CTVALPGGYVRVC (also: cyclic (type not given here))
binding to csGRP78 (csGRP78 [1]): bind to csGRP78 | translocation to the ER (csGRP78 [2]): translocate to the ER
